This is an account of results in patent US20250296992A1 (Genmab, published 2025).

Changes are numbered by the printed parent chain.

Sequences and labels used below:
B1: hu1H2-03 (antibody, V domains shown)
VH: EVQLVESGGGLVQPGGSLRLSCAASGFTFSDYGLHWVRQAPGKGLEWVSYISSGSSTVYFADTLKGRFTISRDNAKNSLYLQMNSLRAEDTAVYYCTRGTWYFDVWGRGTLVTVSS
VL: DIQMTQSPSSLSASVGDRVTITCRTSENIHSYLAWYQQKPGKSPQLLVYNAKTLADGVPSRFSGSGSGTDYTLTISSLQPEDFGTFYCQHFWTTSRTFGGGTKVEIK
notes: see m20
B2: hu14G1-03 (antibody, V domains shown)
VH: EVQLVESGGGLVQPGGSLRLSCAASGFTFSDYGMHWVRQAPGKGLEWVSYISPGSSTIYYADTMKGRFTISRDNAKNSLYLQMNSLRAEDTAVYYCARAYGGSYWYFAVWGQGTLVTVSS
VL: B1 VL with T25A, E27G, F86Y, T93S, S95P, R96Y, V104L
B3: hu1H2-13 (antibody, V domains shown)
VH: B1 VH with S49A
VL: B1 VL
B4: phA290 (antibody, V domains shown)
VH: QVQLVQSGAEVKKPGASVKVSCKASGYTFTSYYMHWVRQAPGQGLEWMGIINPSGGSTSYAQKFQGRVTMTRDTSTSTVYMELSSLRSEDTAVYYCARGFTRYFDYWGQGTLVTVSA
VL: EIVMTQSPGTLSLSPGERATLSCRASQSVSKYLAWYQQRPGQAPRLLIYDASNRATGIPARFSGSGSGTDFTLTVSSLEPEDFAVYYCQQRYNWPLTFGGGTTVEIK
notes: From phage display, then full-length construction; Only the variable regions are tied to the name
B5: Sirtratumab-LD038 (8) (antibody, V domains shown)
VH: QVQLVESGGGVVQPGRSLRLSCAASGFTFSSYGMHWVRQAPGKGLEWVAVIWYDGSNQYYADSVKGRFTISRDNSKNTLFLQMHSLRAEDTAVYYCARGLTSGRYGMDWGQGTTVTVSS
VL: DIVMTQSPLSLPVTPGEPASISCRSSQSLLLSHGFNYLDWYLQKPGQSPQLLIYLGSSRASGVPDRFSGSGSGTDFTLKISRVEAEDVGLYYCMQPLQIPWTFGQGTKVEIK
modifications: drug-linker LD038 on cysteines freed by TCEP reduction, DAR 8.0; positions not given
notes: also called Sirtratumab ADC
B6: hu1H2-03-LD343 (8) (antibody, V domains shown)
VH: B1 VH
VL: B1 VL
modifications: drug-linker LD343 on cysteines freed by TCEP reduction, DAR 8.0; positions not given
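Throughout, for Kd: antibody at several concentrations, 180 s association then 300 s dissociation in Tris buffer at pH 6 or 7.5, rate constants from global fitting, KD computed as koff/kon.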
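Throughout, for koff: antibody at several concentrations, 180 s association then 300 s dissociation in Tris buffer at pH 6 or 7.5, rate constants from global fitting, KD computed as koff/kon.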
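Throughout, for kon: antibody at several concentrations, 180 s association then 300 s dissociation in Tris buffer at pH 6 or 7.5, rate constants from global fitting, KD computed as koff/kon.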

In one test the target is T1, human SLITRK6 on cells (human, UniProt Q9H5Y7 27-841).
T1 construct: whole, on cells
The test can be described thus: flow cytometry on SW780 cells. A general note: Flow cytometry measures light scatter and fluorescence of single cells or particles in a stream.
Experimental: (§1) The binding activity of mAbs was evaluated by flow cytometer (Beckman, Cytoflex). Specifically, cells were incubated with 50 μL of mAbs or ADCs in series dilutions in PBS containing 1% BSA at 4° C. for 30 minutes. The cells were washed twice with PBS containing 1% BSA, stained with PE-conjugated anti human Fc in PBS containing 1% BSA and then incubated at 4° C. for 20 min. After that the cells were washed twice with PBS and analyzed by a flow cytometer.
For the molecule B1, a half-maximal response (EC50) required 410 pM.
With B2, it took 610 pM to reach a half-maximal effect (EC50).
The same measure, in the same setting: as for B3, the figure is 450 pM.
Same read-out and setting: the figure for B4 is 270 pM.

In another test the target is T2, human SLITRK6 extracellular domain linked to his tag (human, UniProt Q9H5Y7 27-608).
T2 construct: extracellular domain; also called huSLITRK6; Hu SLITRK6; not shown: his tag
The test can be described thus: BLI binning on huSLITRK6-his; Ab1 = row antibody first, then Ab2 (competitor) = hu1H2-03.
For B1, the epitope binning signal was determined as 0.0113.
The same measure, in the same setting: as for B2, the figure is 0.0244; as for B3, 0.0288.

The next test deals with T1, human SLITRK6 on cells. The test can be described thus: flow cytometry on RT112/84 cells.
Experimental: as §1
As for B1, a half-maximal response (EC50) required 230 pM.
Turning to B2, the EC50 was found to be 350 pM.
The molecule B3 yielded an EC50 of 170 pM.
Molecule B4 had an EC50 of 80 pM.

A further test addresses T2, human SLITRK6 extracellular domain …. The test can be described thus: BLI binning on huSLITRK6-his; Ab1 = row antibody first, then Ab2 (competitor) = Sirtratumab.
Experimental: (§2) Epitope binning was characterized by the bio-layer interferometry (BLI). 100 nM of human SLITRK6′ extracellular domain linked to his tag was immobilized on anti-his biosensor tips (Fortebio). The sensors were rinsed with the buffer (50 mM Tris-AcOH, pH 6 or 7.5, 0.05% v/v surfactant P20) for 30 seconds to remove the unbound molecules, then dipped in the 100 nM of antibody 1 solutions for 180 seconds and interspersed by a rinsing step in the buffer solution for 300 seconds. After that, the sensors were dipped in the 100 nM of antibody 2 solutions. The epitope cluster was calculated using ForteBio Data Acquisition 6.3 software.
As to B1, the epitope binning signal was determined as 0.299.
On the same count and under the same terms, as for B2, the figure is 0.293; as for B3, 0.312.

A further test concerns the target T3, rat SLITRK6 (rat, UniProt D3ZP44 27-607).
T3 construct: extracellular domain; not shown: his tag
The test can be described thus: ELISA, coated antigen. Background: In an ELISA, binding on a coated surface is turned into a signal by an enzyme label.
Consider B4, for which the EC50 amounted to 180 pM.

The next test addresses T4, cynomolgus monkey SLITRK6 extracellular domain linked to his tag (cynomolgus monkey, UniProt G7PVK4 27-608).
T4 construct: extracellular domain; also called cynoSLITRK6; Cyno SLITRK6; not shown: his tag
The test can be described thus: ELISA, coated antigen.
B1 gave an EC50 of 50 pM.
B2 showed an EC50 of 40 pM.
The same measure, in the same setting: the figure for B3 is 50 pM; for B4 it is 60 pM.

The next test has as its target T2, human SLITRK6 extracellular domain …. The test can be described thus: ELISA, coated antigen.
Experimental: First, a purified antigen was adsorbed to the surface of a PVC 96-well plate for ELISA at 4° C. overnight, the plate was washed twice by filling the wells with 350 μL TBST buffer (200 mM Sodium Chloride, 20 mM Tris, 0.05% Tween-20, pH 8). The surface of the solid phase having no antigen adsorbed thereto was covered with BSA. After washing the surface with TBST buffer, the surface was incubated with a serially diluted mAb as a primary antibody to bind to the antigen for 1 hour at room temperature. The plate was washed twice with TBST buffer and added an antibody labeled with an enzyme as a secondary antibody to incubate for 1 hour at room temperature.
As for B1, a half-maximal effect (EC50) was put at 40 pM.
On the same count and under the same terms, the figure for B2 is 40 pM.
Still for that read-out and setting: the figure for B3 is 70 pM.
Molecule B4 registered an EC50 of 90 pM.

A further test addresses T1, human SLITRK6 on cells. The test can be described thus: cell-based or functional assay.
In the case of B5, the “IC50 (nM), cytotoxicity on 293F-SLITRK6-C9 cells (Cell Titer-Glo)” value worked out at 0.06 nM; the “IC50 (nM), cytotoxicity on CHP-212 cells (Cell Titer-Glo)” value is 5.56 nM; the “IC50 (nM), cytotoxicity on RT4 cells (Cell Titer-Glo)” value is 9.25 nM.

The target of another test is T2, human SLITRK6 extracellular domain …. The test can be described thus: BLI binning on huSLITRK6-his; Ab1 = row antibody first, then Ab2 (competitor) = phA108.
Experimental: as §2
B1 registered an epitope binning signal of 0.304.
Same read-out and setting: as for B2, the figure is 0.323; as for B3, 0.299.

Another test has as its target T1, human SLITRK6 on cells. The test can be described thus: flow cytometry on 293F-SLITRK6-C9 cells.
Experimental: (§3) The binding activity of mAbs and ADCs was evaluated by flow cytometer (Beckman, Cytoflex). Specifically, cells were incubated with 50 μL of mAbs or ADCs in series dilutions in PBS containing 1% BSA at 4° C. for 30 min. The cells were washed twice with PBS containing 1% BSA, stained with PE-conjugated anti human Fc in PBS containing 1% BSA and then incubated at 4° C. for 20 min. After that the cells were washed twice with PBS and analyzed by a flow cytometer.
Turning to B5, the EC50 amounted to 1320 pM.
On the same count and under the same terms, as for B1, the figure is 1330 pM; as for B2, 1770 pM; as for B3, 1320 pM.
The same measure, in the same setting: as for B4, the figure is 1160 pM.

A further test addresses T1, human SLITRK6 on cells. The test can be described thus: flow cytometry on RT4 cells.
Experimental: as §1
For the molecule B1, the EC50 amounted to 280 pM.
For the molecule B2, it took 320 pM to reach a half-maximal effect (EC50).
Molecule B3 returned a concentration for a half-maximal effect (EC50) of 270 pM.
Same read-out and setting: as for B4, the figure is 140 pM.

For the next test, the target named is T1, human SLITRK6 on cells. The test can be described thus: flow cytometry on 293F-huSLITRK6-C9 cells.
Experimental: The binding activity of mAbs was evaluated by flow cytometer (Beckman, Cytoflex). Specifically, cells were incubated with 50 μL of mAbs or ADCs in series dilutions in PBS containing 1% BSA at 4° C. for 30 min. The cells were washed twice with PBS containing 1% BSA, stained with PE-conjugated anti human Fc in PBS containing 1% BSA and then incubated at 4° C. for 20 min. After that the cells were washed twice with PBS and analyzed by a flow cytometer.
Take B1: the EC50 is 1330 pM.
Molecule B2 gave a concentration for a half-maximal effect (EC50) of 1770 pM.
Still for that read-out and setting: as for B3, the figure is 1320 pM.
Same read-out and setting: as for B4, the figure is 1160 pM.

A further test has as its target T1, human SLITRK6 on cells. The test can be described thus: flow cytometry on SW780 cells, PE-conjugated anti-human Fc.
Experimental: as §3
Regarding B6, the half-maximal effective concentration (EC50 (read off the curve)) was approximately 300 pM.

For another test, the target named is T1, human SLITRK6 on cells. The test can be described thus: flow cytometry on SW780 cells. The source holds these as a separate data set.
Experimental: as §3
B5: the EC50 worked out at 380 pM.
On the same count and under the same terms, as for B1, the figure is 440 pM; as for B2, 620 pM.
Still for that read-out and setting: the figure for B3 is 440 pM; for B4 it is 270 pM.

Another test addresses T2, human SLITRK6 extracellular domain …. The test can be described thus: BLI binning on huSLITRK6-his; Ab1 = row antibody first, then Ab2 (competitor) = hu14G1-03.
Experimental: as §2
On to B1, for which the epitope binning signal amounted to 0.0077.
Still for that read-out and setting: as for B2, the figure is 0.0192; as for B3, 0.0231.

Another test has the same target. The test can be described thus: BLI binning on huSLITRK6-his; Ab1 = row antibody first, then Ab2 (competitor) = phA290.
Experimental: as §2
As for B1, the epitope binning signal was found to be 0.299.
In turn, B2 had an epitope binning signal of 0.326.
Same read-out and setting: as for B3, the figure is 0.302.

Another test concerns the target T4, cynomolgus monkey SLITRK6 extracellular …. The test can be described thus: BLI; antigen ECD-his on anti-his tips, antibody as analyte; 1:1 fit. (In general: Biolayer interferometry detects binding as a change in optical thickness at a sensor tip.)
Experimental: (§4) Binding kinetic of antibody-antigen was characterized by the bio-layer interferometry (BLI). 100 nM of SLITRK6′ extracellular domain linked to his tag was immobilized on anti-his biosensor tips (Fortebio). The sensors were rinsed with the buffer (50 mM Tris-AcOH, pH 6 or 7.5, 0.05% v/v surfactant P20) for 10 min to remove the unbound molecules, then dipped in the antibody solutions at different concentrations for 180 seconds and interspersed by a rinsing step in the buffer solution for 300 seconds. Binding affinity was calculated using ForteBio Data Acquisition 6.3 software (ForteBio) and was derived by fitting the kinetic data to a 1:1 Langmuir binding model utilizing global fitting algorithms. The dissociation or association equilibrium constant KD was calculated from the binding rate constants as KD=koff/kₒₙ(where koff and kₒₙ represent the dissociation kinetic constant and the association kinetic constant, respectively).
B1: binding was put at a Kd of 1270 pM, the koff worked out at 0.000444 s⁻¹ and the kon amounted to 348000 M⁻¹ s⁻¹.
Taken in the same sequence, the figures for B2 were 965 pM, 0.000329 s⁻¹ and 341000 M⁻¹ s⁻¹.
Taken in the same sequence, the figures for B3 were 1360 pM, 0.000513 s⁻¹ and 376000 M⁻¹ s⁻¹.
Molecule B4 returned a Kd of 3140 pM.

A further test has as its target T2, human SLITRK6 extracellular domain …. Described as above.
Experimental: as §4
As for B1, the Kd was 920 pM, the koff amounted to 0.000441 s⁻¹ and the association rate constant (kon) amounted to 480000 M⁻¹ s⁻¹.
Taken in the same sequence, the figures for B2 were 212 pM, 8.26e-05 s⁻¹ and 390000 M⁻¹ s⁻¹.
Taken in the same sequence, the figures for B3 were 916 pM, 0.00044 s⁻¹ and 480000 M⁻¹ s⁻¹.
As to B4, the Kd was 1060 pM.

The next test concerns the target T1, human SLITRK6 on cells. The test can be described thus: flow cytometry on SCC-4 cells.
Experimental: as §1
In the case of B1, the EC50 worked out at 270 pM.
Still for that read-out and setting: the figure for B2 is 440 pM; for B3 it is 230 pM.
The same measure, in the same setting: the figure for B4 is 150 pM.

The target of another test is T1, human SLITRK6 on cells. The test can be described thus: flow cytometry on CHP-212 cells.
Experimental: as §3
Molecule B5 had an EC50 of 490 pM.
Regarding B1, the EC50 was determined as 240 pM.
The same measure, in the same setting: as for B2, the figure is 370 pM; as for B3, 220 pM; as for B4, 160 pM.

In the next test the target is T1, human SLITRK6 on cells. The test can be described thus: flow cytometry on RT4 cells. The source holds these as a separate data set.
Experimental: as §3
Turning to B5, the midpoint of the response, the EC50, lay at 310 pM.
Same read-out and setting: as for B1, the figure is 360 pM; as for B2, 380 pM.
On the same count and under the same terms, as for B3, the figure is 270 pM.
Still for that read-out and setting: the figure for B4 is 140 pM.

The next test addresses T1, human SLITRK6 on cells. The test can be described thus: flow cytometry on RT4 cells, PE-conjugated anti-human Fc.
Experimental: as §3
For B6, the “EC50 (read off the curve)” value was approximately 400 pM.

The target in another test is T2, human SLITRK6 extracellular domain …. The test can be described thus: BLI binning on huSLITRK6-his; Ab1 = row antibody first, then Ab2 (competitor) = hu1H2-13.
Experimental: as §2
Molecule B1 came in with an epitope binning signal of 0.0122.
On the same count and under the same terms, the figure for B2 is 0.0268; for B3 it is 0.0284.

The next test deals with T1, human SLITRK6 on cells. The test can be described thus: flow cytometry on CHP-212 cells. This is another data set of the same source.
Experimental: as §1
Consider B1, for which the EC50 worked out at 220 pM.
On the same count and under the same terms, the figure for B2 is 330 pM; for B3 it is 220 pM; for B4 it is 140 pM.

As usually defined, the EC50 is the concentration at which the effect is half-maximal. Broadly, the EC50 (read off the curve) is the concentration giving half of the maximal effect. What is called Kd is a measure of binding affinity in units of concentration. The term koff denotes a measure of how fast the partners let go of each other. Broadly, the kon is a measure of how fast the partners come together.
